The values that follow come from article PMC5601474, “Radiation damage at the active site of human alanine:glyoxylate aminotransferase reveals that the cofactor position is finely tuned during catalysis” (Scientific Reports, 2017).

Data set [1] deals with the molecule itself. In words: crystal structure; orthorhombic crystal P212121 of AGT-Ma holo, hanging drop, 21 °C, PEG 6K 12%, 0.1 M MES pH 5.0; 1.7 Å; 2 molecules (1 dimer) per asymmetric unit.
Data set [2] deals with the molecule itself. Put plainly: crystal structure; crystal P212121 of AGT-Ma-D183N holo, sitting drop, 21 °C, PEG 10K 17%, 0.1 M Bis-Tris pH 5.5, 0.1 M ammonium acetate; 1.8 Å; eight molecules (4 dimers) per asymmetric unit.

B1: human alanine:glyoxylate aminotransferase major allele, wild type (enzyme)
chain: MASHKLLVTPPKALLKPLSIPNQLLLGPGPSNLPPRIMAAGGLQMIGSMSKDMYQIMDEIKEGIQYVFQTRNPLTLVISGSGHCALEAALVNVLEPGDSFLVGANGIWGQRAVDIGERIGARVHPMTKDPGGHYTLQEVEEGLAQHKPVLLFLTHGESSTGVLQPLDGFGELCHRYKCLLLVDSVASLGGTPLYMDRQGIDILYSGSQKALNAPPGTSLISFSDKAKKKMYSRKTKPFSFYLDIKWLANFWGCDDQPRMYHHTIPVISLYSLRESLALIAEQGLENSWRQHREAAAYLHGRLQALGLQLFVKDPALRLPTVTTVAVPAGYDWRDIVSYVIDHFDIEIMGGLGPSTGKVLRIGLLGCNATRENVDRVTEALRAALQHCPKKKL
modifications: Lys-209 in Schiff base linkage with PLP (internal aldimine); the linkage is photoreduced and broken in the late dataset
notes: alanine:glyoxylate aminotransferase (AGT), human, major allele; also called AGT-Ma; AGT
B1: in data set [1], the binding result is given as “binds”.

B2: human alanine:glyoxylate aminotransferase major allele, pathogenic variant D183N (enzyme)
chain: MASHKLLVTPPKALLKPLSIPNQLLLGPGPSNLPPRIMAAGGLQMIGSMSKDMYQIMDEIKEGIQYVFQTRNPLTLVISGSGHCALEAALVNVLEPGDSFLVGANGIWGQRAVDIGERIGARVHPMTKDPGGHYTLQEVEEGLAQHKPVLLFLTHGESSTGVLQPLDGFGELCHRYKCLLLVNSVASLGGTPLYMDRQGIDILYSGSQKALNAPPGTSLISFSDKAKKKMYSRKTKPFSFYLDIKWLANFWGCDDQPRMYHHTIPVISLYSLRESLALIAEQGLENSWRQHREAAAYLHGRLQALGLQLFVKDPALRLPTVTTVAVPAGYDWRDIVSYVIDHFDIEIMGGLGPSTGKVLRIGLLGCNATRENVDRVTEALRAALQHCPKKKL
modifications: Lys-209 in Schiff base linkage with PLP (internal aldimine)
notes: alanine:glyoxylate aminotransferase (AGT), human, major allele, with the pathogenic (primary hyperoxaluria type I) mutation D183N; also called AGT-Ma D183N; AGT-D183N
For the protein B2, the binding result in data set [2] is on record as “binds”.
